# Patent US7666582B2, “IdeS, an IgG-degrading enzyme of Streptococcus pyogenes” (Hansa Medical Research AB, priority 2001, dated 2010)
# B1: IdeS: new extracellular cysteine protease produced by S. pyogenes, highly specific for IgG; SEQ ID NO: 1 (protein)
# chain: DSFSANQEIRYSEVTPYHVTSVWTKGVTPPANFTQGEDVFHAPYVANQGWYDITKTFNGKDDLLCGAATAGNMLHWWFDQNKDQIKRYLEEHPEKQKINFNGEQMFDVKEAIDTKNHQLDSKLFEYFKEKAFPYLSTKHLGVFPDHVIDMFINGYRLSLTNHGPTPVKEGSKDPRGGIFDAVFTRGDQSKLLTSRHDFKEKNLKEISDLIKKELTEGKALGLSHTYANVRINHVINLWGADFDSNGNLKAIYVTDSDSNASIGMKKYFVGVNSAGKVAISAKEIKEDNIGAQVLGLFTLSTGQDSWNQTN
# modifications: S. Pyogenes
# How the values were obtained:
# rabbit IgG = experiment: IdeS species restrictions: rabbit IgG; assay type: biochemical
# lactoferrin = lactoferrin (Homo sapiens, UniProt P02788); experiment: IdeS cleavage of other human proteins: lactoferrin; assay type: biochemical
# whole human plasma = experiment: Incubation of human plasma with IdeS; assay type: biochemical
# fibrinogen = target: T1, fibrinogen (Homo sapiens, UniProt P02671+P02675+P02679); experiment: IdeS cleavage of other human proteins: fibrinogen; assay type: biochemical
# T1 sequence (P02671 20-629 limits assumed): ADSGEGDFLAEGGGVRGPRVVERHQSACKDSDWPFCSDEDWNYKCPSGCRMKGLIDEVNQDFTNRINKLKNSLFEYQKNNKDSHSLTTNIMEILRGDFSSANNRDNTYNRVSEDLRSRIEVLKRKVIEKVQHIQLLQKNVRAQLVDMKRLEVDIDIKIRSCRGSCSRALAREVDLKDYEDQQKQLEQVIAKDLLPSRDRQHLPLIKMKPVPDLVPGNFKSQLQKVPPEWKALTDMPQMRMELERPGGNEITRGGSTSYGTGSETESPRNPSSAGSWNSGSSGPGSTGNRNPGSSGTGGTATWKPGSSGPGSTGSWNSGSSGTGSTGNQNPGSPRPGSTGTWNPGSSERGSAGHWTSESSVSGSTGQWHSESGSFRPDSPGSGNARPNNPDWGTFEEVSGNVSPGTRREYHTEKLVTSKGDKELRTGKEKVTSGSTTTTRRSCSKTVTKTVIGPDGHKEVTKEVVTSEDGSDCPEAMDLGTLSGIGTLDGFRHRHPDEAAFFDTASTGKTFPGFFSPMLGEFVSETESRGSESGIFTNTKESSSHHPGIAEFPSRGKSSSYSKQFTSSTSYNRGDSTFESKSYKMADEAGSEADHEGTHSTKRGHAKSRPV
# T1 sequence (P02675 31-491): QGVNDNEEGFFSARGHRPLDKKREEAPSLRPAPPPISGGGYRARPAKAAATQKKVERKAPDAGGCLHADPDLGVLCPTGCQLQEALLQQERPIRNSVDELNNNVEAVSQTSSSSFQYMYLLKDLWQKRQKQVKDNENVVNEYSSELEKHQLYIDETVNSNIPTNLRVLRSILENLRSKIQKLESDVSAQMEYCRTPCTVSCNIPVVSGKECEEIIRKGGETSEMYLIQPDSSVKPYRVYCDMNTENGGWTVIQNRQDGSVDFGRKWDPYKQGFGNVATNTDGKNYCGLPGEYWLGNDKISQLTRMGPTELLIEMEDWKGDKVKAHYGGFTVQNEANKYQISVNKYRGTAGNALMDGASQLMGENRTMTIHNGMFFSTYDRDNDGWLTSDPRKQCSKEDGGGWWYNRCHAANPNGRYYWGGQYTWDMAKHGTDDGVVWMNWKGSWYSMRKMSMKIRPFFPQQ
# T1 sequence (P02679 27-453): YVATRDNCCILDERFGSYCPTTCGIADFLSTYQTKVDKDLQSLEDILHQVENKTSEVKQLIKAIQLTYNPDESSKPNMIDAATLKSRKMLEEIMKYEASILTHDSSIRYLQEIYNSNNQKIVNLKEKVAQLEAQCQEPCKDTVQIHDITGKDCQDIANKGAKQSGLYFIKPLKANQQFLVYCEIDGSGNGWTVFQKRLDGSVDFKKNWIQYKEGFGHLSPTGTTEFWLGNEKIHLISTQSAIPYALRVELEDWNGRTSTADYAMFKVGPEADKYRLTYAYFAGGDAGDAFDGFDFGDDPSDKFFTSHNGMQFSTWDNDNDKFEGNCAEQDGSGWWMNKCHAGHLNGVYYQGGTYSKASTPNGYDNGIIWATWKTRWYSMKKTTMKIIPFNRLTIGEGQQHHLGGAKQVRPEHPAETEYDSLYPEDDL
# IgG2 = experiment: IdeS activity against IgG2; assay type: biochemical, human
# cystatin C = target: T2, cystatin C (Mus musculus, UniProt P21460); experiment: IdeS incubation with mouse cystatin C; assay type: biochemical
# T2 sequence (P21460 21-140): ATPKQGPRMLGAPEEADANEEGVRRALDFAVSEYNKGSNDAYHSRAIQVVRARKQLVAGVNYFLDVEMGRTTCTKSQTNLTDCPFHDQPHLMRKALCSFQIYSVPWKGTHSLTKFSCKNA
# transferrin = transferrin (Homo sapiens, UniProt P02787); experiment: IdeS cleavage of other human proteins: transferrin; assay type: biochemical
# laminin = experiment: IdeS cleavage of other human proteins: laminin; assay type: biochemical
# human IgE = experiment: IdeS cleavage assay of Ig classes: IgE; assay type: biochemical; settings: purified IdeS, 2 h at 37° C.
# Protocol: (§1) For standard IdeS activity assays, bacteria cultures were grown to OD620=0.4. Bacteria were pelleted by centrifugation and supernatants were sterile-filtered through a 0.22 μm membrane (Millipore) prior to use. For activity assays, […] of supernatant were mixed with 5 μl of IgG (10 mg/ml, Sigma) and the volume was adjusted with PBS to 100 μl. For screening of IdeS activity in different S. progenes strains, E64 was added to a final concentration of 40 μM. The mixtures were incubated at 37° C. for 30 min and samples were analyzed by 12% SDS-PAGE. For cleavage assays of different classes of Ig, purified IdeS (0.3 μg/ml) was incubated with 3 μg Ig for 2 h at 37° C., and analyzed by 12% SDS-PAGE analysis.
# murine IgG = experiment: IdeS species restrictions: murine IgG; assay type: biochemical
# [1] = IdeS activity towards peptides: Z-LVG-CHN2; assay type: biochemical; settings: excess IdeS
# human IgD = experiment: IdeS cleavage assay of Ig classes: IgD; assay type: biochemical; settings: purified IdeS, 2 h at 37° C.
# Protocol: as §1
# Sequence of transferrin (P02787 20-698): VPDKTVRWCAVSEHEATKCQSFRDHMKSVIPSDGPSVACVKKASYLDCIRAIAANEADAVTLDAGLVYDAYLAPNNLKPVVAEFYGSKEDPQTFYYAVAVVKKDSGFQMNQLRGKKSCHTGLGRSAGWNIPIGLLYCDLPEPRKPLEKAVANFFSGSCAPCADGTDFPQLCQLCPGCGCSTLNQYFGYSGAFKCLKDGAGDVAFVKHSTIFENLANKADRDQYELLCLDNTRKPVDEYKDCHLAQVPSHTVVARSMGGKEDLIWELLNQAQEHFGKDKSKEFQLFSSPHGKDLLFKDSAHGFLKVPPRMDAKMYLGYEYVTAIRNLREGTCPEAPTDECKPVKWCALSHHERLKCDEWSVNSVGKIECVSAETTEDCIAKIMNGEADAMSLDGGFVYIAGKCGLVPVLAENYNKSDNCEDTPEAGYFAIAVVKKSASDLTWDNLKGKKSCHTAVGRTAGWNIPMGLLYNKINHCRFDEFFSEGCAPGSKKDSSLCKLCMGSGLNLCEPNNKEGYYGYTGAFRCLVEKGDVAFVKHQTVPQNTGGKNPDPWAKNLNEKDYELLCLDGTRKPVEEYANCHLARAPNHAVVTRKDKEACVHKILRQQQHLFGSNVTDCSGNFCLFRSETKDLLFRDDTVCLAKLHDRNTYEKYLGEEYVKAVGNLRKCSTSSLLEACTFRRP
# Sequence of lactoferrin (P02788 20-710): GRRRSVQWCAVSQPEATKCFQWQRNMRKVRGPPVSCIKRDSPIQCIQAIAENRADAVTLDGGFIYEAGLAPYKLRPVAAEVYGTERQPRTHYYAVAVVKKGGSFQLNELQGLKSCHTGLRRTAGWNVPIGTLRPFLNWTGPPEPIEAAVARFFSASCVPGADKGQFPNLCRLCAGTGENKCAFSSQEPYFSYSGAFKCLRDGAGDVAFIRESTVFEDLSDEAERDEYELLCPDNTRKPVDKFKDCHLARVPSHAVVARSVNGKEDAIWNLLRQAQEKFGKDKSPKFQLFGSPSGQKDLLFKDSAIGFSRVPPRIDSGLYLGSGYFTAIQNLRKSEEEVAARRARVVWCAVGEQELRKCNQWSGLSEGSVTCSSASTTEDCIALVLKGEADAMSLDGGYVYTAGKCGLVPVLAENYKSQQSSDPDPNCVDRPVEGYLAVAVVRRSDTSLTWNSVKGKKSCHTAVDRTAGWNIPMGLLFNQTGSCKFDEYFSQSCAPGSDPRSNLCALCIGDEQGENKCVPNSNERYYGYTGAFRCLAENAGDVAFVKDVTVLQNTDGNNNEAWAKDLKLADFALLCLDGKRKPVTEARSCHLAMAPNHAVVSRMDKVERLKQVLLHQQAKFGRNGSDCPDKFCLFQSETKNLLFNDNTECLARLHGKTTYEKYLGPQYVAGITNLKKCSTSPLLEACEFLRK
molecule,measurement,setting,value
B1,cleavage of rabbit IgG,rabbit IgG,cleave
same,"cleavage products, lactoferrin",lactoferrin,No cleavage products could be detected
same,degradation products in human plasma,whole human plasma; purified IdeS,only the 31 kDa IgG-derived band and no additional degradation products could be identified
same,cleavage products,"whole human plasma; whole human plasma, further studies",No cleavage products could be detected
same,"cleavage products, fibrinogen",fibrinogen,No cleavage products could be detected
same,digestion of IgG2 compared to the other subclasses,IgG2,less efficiently digested
same,"cleavage products, cystatin C from mouse",cystatin C,No cleavage products could be observed
same,"cleavage products, transferrin",transferrin,No cleavage products could be detected
same,"cleavage products, laminin",laminin,No cleavage products could be detected
same,degradation of human IgE,human IgE,only IgG was degraded
same,cleavage of murine IgG,murine IgG,not murine IgG
same,cleavage of Z-LVG-CHN2,[1],"Neither was the synthetic peptide Z-LVG-CHN2, which inhibits IdeS activity, cleaved"
same,degradation of human IgD,human IgD,only IgG was degraded
